Assay results published in publication PMC3498381, “Isolated Toll-like Receptor Transmembrane Domains Are Capable of Oligomerization” (PLoS ONE, 2012).
No end group written: not given here.

How the values were obtained:
[1] = Sedimentation equilibrium analytical ultracentrifugation (SE-AUC); format: physicochemical; conditions: for Oligomeric state (equilibrium model) / Average molecular weight obtained from the fit: SE-AUC; for Oligomeric state (equilibrium model): density matched 10 mM C14-betaine micelles, 100 mM HEPES pH 7.4, 25% D2O, 25 °C; for Average molecular weight obtained from the fit: peptide alone, global fit, single species model, 495 nm (FITC-TLR2) or 400 nm (coumarin-TLR6)
Experimental: (§1) Supplementary file pone.0048875.s003.tif: Figure S3 TLR2 Homotypic Sedimentation Equilibrium AUC. Sedimentation equilibrium profile at 495 nm of FITC-labeled TLR2 in density matched C14-betaine micelles (10 mM) in HEPES buffer (100 mM, pH 7.4). The partial specific volume and the solution density were fixed at 0.78730 mL/g and 1.031 g/mL, respectively. The data was analyzed using a global fitting routine. […] (TIF) Click here for additional data file.
as §1, with “pone.0048875.s004.tif:” for “pone.0048875.s003.tif:”, “S4 TLR6” for “S3 TLR2”, “400” for “495”, “coumarin-labeled TLR6” for “FITC-labeled TLR2”, “0.78705” for “0.78730”
as §1, with “pone.0048875.s005.tif:” for “pone.0048875.s003.tif:”, “S5 TLR2-TLR6 Heterotypic” for “S3 TLR2 Homotypic”, “7.4) in the presence of 2 equiv. of coumarin-labeled TLR6 peptide.” for “7.4).”
Equilibrium sedimentation was used primarily to determine the association state of TLR2, TLR6, and TLR2-TLR6. The experiments were performed in a Beckman XL-I analytical ultracentrifuge (Beckman Coulter) using six-channel carbon-epoxy composite centerpieces at 25 °C. Peptides were co-dissolved in trifluoroethanol (TFE) and C14-betaine. The organic solvent was removed using dry nitrogen gas and the resulting thin film of peptide/detergent mixture was dried overnight. The sample was then dissolved in buffer previously determined to match the density of the detergent component (100 mM HEPES buffer (pH= 7.4) buffer containing 25% D2O). The final concentration of C14-betaine is 10 mM in all of the samples. Peptide concentrations were determined by UV-Vis on the Beckman Coulter XL-I and dilutions were carried out to get concentrations in the desired absorbance ranges of the instrument (0.3-1) using the following extinction coefficients: 39,300 M^-1cm^-1 at 400 nm for coumarin labeled peptides and 69,000 M^-1cm^-1 at 495 nm for FITC labeled peptides. Data at different measurement speeds (30, 35 krpm) and different peptide:detergent ratios were analyzed by global curve-fitting of radial concentration gradients (measured using optical absorption) to the sedimentation equilibrium equation. Absorbance at both 400 nm and 495 nm was measured. Peptide partial specific volumes were calculated using previously described methods and residue molecular weights corrected for the 25% D2O exchange expected for the density-matched buffer. The solvent density (1.031 g/ml) was calculated using the program Sednterp. These coefficients were multiplied by the molar detergant ratio concentration units. […]
where E = baseline (zero concentration) absorbance, co is the peptide/detergent ratio of the peptide at ro, ε is the molar extinction coefficient, l is the optical path length, ω =2π*RPM, R= 8.3144 ×10^7 erg K^-1mol^-1 , T is temperature in K, M is the buoyant molecular weight of the peptide. […]

[2] = target: T1, 7-hydroxycoumarin labeled TLR6 TMD peptide (Homo sapiens, UniProt Q9Y2C9); assay: FRET titration, TLR2-TLR6; format: binding; conditions: nM of acceptor labeled peptide; donor coumarin-TLR6 20 nM, fluorescein-TLR2 0-1500 nM, 1 mM C14-betaine, 100 mM HEPES pH 7.4; Hill equation; read-out: Dissociation constant, TLR2-TLR6 interaction
T1 construct: we synthesized peptides for the TLR1, TLR2, and TLR6 TMDs; made in house; host or cells: chemical solid-phase synthesis on Rink Amide resin (C-terminal amide)
Experimental: (§2) Using the same TLR1, TLR2, and TLR6 peptides, as described above, we were able to monitor the heterotypic interactions between TLR2-TLR1 and TLR2-TLR6 using a previously reported Förster resonance energy transfer (FRET) assay. […] The dissociation constant for the TLR2-TLR1 interaction was 230.8±20.0 nM of acceptor labeled peptide and for TLR2-TLR6 it was 286.5±14.8 nM of acceptor labeled peptide (Fig. 6C). […] SE-AUC was also used to investigate the oligomeric state of the TLR2-TLR6 heterotypic interaction.
(§3) Figure 6 TLR2-TLR1 and TLR2-TLR6 Heterotypic Interactions Measured by Förster Resonance Energy Transfer. Synthetic TMD peptides were co-incubated in micelles with the FRET donor concentration fixed to be 20 nM and the FRET acceptor concentration varied from 0–1500 nM. The donor was excited at 415 nm and emission was monitored from 440–600 nm. Only donor emission is shown as the excitation-emission separation led to a high background signal seen in the acceptor channel. (A) TLR2-TLR1 donor channel. (B) TLR2-TLR6 donor channel. (C) FRET efficiency based on decrease in donor signal at increasing acceptor concentrations.
(§4) FRET was used to directly probe the heterotypic association of the synthetic peptides. FRET experiments were performed on a Horiba Fluorolog-3 using a 0.3 cm path length cuvette. […]

[3] = target: T2, 7-hydroxycoumarin labeled TLR1 TMD peptide (Homo sapiens, UniProt Q15399); assay: FRET titration, TLR2-TLR1; format: binding; conditions: nM of acceptor labeled peptide; donor coumarin-TLR1 20 nM, fluorescein-TLR2 0-1500 nM, 1 mM C14-betaine, 100 mM HEPES pH 7.4; Hill equation; read-out: Dissociation constant, TLR2-TLR1 interaction
T2 construct: we synthesized peptides for the TLR1, TLR2, and TLR6 TMDs; made in house; host or cells: chemical solid-phase synthesis on Rink Amide resin (C-terminal amide)
T2 sequence (Q15399 581-601 limits assumed): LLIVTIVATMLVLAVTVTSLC
Experimental: as §2, §3, §4

[4] = 10 mM C14-betaine, 100 mM HEPES pH 7.4

Row | Substance | Oligomeric state (equilibrium model) [1] | Average molecular weight obtained from the fit [1, 4] | Kd [2] | Kd [3] | Average molecular weight obtained from the fit, in the presence of TLR6 ([1]; SE-AUC at 495 nm, FITC-labeled TLR2 with 2 equiv. of coumarin-labeled TLR6 peptide, 10 mM C14-betaine, 100 mM HEPES pH 7.4)
1 | TLR6*: TLR6 TMD chimera with nonfunctional ToxR* domain (negative phenotype) (GNRASITLLIVTIGATMLVLAVTVTSLCIYLGSLIN; also: fused to non-functional ToxR* (S87H) and maltose binding protein, ends not given here) | monomer-dimer equilibrium | 7680±866 Da | – | – | –
2 | TLR2*: TLR2 TMD chimera with nonfunctional ToxR* domain (negative phenotype) (GNRASALVSGMCCALFLLILLTGVLCGSLIN; cysteine pairing not given here; also: fused to non-functional ToxR* (S87H) and maltose binding protein, ends not given here) | monomer-dimer-tetramer equilibrium | 14135±370 Da | 286 ± 14.8 nM | 231 ± 20 nM | 12330±506 Da
